The target in this assay is syntrophin PDZ domain (UniProt Q61234).

pKd: −log10 of the molar value.

Turning to “VKESLV ligand (syntrophin PDZ ligand) (peptide)”, the pKd (in general, −log10 of the Kd, conventionally taken in molar units) is 5.71.

The values above are taken from paper PMC10528910.
